Laboratory results: patent US20260098080A1, “A MODIFIED PROTEIN SCAFFOLD AND USE THEREOF” (EVOLVERITAS BIOTECHNOLÓGIAI KORLÁTOLT FELELOSSÉGU TÁRSASÁG, priority 2022, published 2026)
“And” between values parts separate entries of the source, which are not always exact repeats. Equal values may be shown once. Read-outs that look alike come from different tables or passages of the source. Bridges are numbered along the chain shown (N, C = ends). Where no end group is shown, it is not given here.

Experiments:
human MASP-2cf = biological target: T1, human MASP-2cf (Homo sapiens, UniProt O00187); assay: Equilibrium inhibition constant (KI) on human MASP-2 catalytic fragment, Z-L-Lys-SBzl substrate; assay type: biochemical
T1 construct: catalytic enzyme fragments containing the three C-terminal domains: CCP1-CCP2-SP; made in house

[1] = biological target: T2, human MASP-2 catalytic fragment (Homo sapiens, UniProt O00187); assay: Surface plasmon resonance kinetics and affinity on immobilized human MASP-2 catalytic fragment; assay type: binding
T2 construct: catalytic enzyme fragments containing the three C-terminal domains: CCP1-CCP2-SP; made in house

intrinsic pathway = assay: Human blood coagulation: activated partial thromboplastin time; assay type: biochemical; conditions: human plasma, duplicates 21/1 and 21/2
Procedure: (§1) The effect of the proteins of the present invention on the blood coagulation process was tested in three standard assays, the thrombin time, testing any direct effects on thrombin; prothrombin time, testing any effects on the extrinsic pathway; and the activated partial thromboplastin time, testing any effects on the intrinsic pathway.
(§2) Blood was collected from a healthy individual by vein puncture after informed consent. The blood was treated with sodium-citrate (3.8% wt/vol) and centrifuged. All three assays were performed on the automated instrument Sysmex CA-1500 (Sysmex) with Innovin reagent (Dale Behring, Marburg, Germany).
(§3) The proteins of the present invention were applied in a twofold serial dilution in 1.4% wt/vol sodium bicarbonate (vehicle) with the highest final concentration being 10 μM (3.4 μM for EVO24 (SEQ ID NO: 15)) and the lowest final concentration being 156 nM (53 nM for EVO24 (SEQ ID NO: 15)).
(§4) All measurements were done in duplicates and a vehicle control was also tested. The highest concentration value is about 5 orders of magnitudes higher than the KD values of the four proteins of the present invention on human MASP-2.

extrinsic pathway = assay: Human blood coagulation: prothrombin time; assay type: biochemical; conditions: human plasma, duplicates 21/1 and 21/2
Procedure: as §1, §2, §3, §4

thrombin = assay: Human blood coagulation: thrombin time; assay type: biochemical; conditions: human plasma, duplicates 21/1 and 21/2
Procedure: as §1, §2, §3, §4

rat MASP-2 = rat MASP-2 (Rattus norvegicus, UniProt Q9JJS8); conditions: as disclosed in WO2018127719; cited from earlier work
Chain of rat MASP-2 (Q9JJS8 20-685): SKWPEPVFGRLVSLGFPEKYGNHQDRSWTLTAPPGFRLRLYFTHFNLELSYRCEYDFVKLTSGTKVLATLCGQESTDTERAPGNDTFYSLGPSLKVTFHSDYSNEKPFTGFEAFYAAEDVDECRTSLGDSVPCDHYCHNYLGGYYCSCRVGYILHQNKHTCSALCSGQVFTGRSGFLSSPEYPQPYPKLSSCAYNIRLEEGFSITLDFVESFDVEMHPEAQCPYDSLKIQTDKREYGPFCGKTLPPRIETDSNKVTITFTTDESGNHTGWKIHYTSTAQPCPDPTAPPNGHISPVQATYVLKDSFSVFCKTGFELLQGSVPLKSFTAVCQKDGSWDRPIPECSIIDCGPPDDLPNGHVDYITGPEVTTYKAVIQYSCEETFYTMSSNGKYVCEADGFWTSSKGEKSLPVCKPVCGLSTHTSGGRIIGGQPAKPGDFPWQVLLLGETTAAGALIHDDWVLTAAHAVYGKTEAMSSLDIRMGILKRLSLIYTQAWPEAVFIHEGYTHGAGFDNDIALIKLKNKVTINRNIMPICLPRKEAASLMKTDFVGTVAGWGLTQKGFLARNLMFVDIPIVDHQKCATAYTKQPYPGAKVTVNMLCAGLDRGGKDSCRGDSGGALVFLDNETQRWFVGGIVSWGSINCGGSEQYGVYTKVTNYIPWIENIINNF

human MASP-2 = human MASP-2 (Homo sapiens, UniProt O00187); conditions: as disclosed in WO2018127719, read-out: inhibitory binding constant (KI) on human MASP-2, cited from earlier work
Chain of human MASP-2 (O00187 16-686): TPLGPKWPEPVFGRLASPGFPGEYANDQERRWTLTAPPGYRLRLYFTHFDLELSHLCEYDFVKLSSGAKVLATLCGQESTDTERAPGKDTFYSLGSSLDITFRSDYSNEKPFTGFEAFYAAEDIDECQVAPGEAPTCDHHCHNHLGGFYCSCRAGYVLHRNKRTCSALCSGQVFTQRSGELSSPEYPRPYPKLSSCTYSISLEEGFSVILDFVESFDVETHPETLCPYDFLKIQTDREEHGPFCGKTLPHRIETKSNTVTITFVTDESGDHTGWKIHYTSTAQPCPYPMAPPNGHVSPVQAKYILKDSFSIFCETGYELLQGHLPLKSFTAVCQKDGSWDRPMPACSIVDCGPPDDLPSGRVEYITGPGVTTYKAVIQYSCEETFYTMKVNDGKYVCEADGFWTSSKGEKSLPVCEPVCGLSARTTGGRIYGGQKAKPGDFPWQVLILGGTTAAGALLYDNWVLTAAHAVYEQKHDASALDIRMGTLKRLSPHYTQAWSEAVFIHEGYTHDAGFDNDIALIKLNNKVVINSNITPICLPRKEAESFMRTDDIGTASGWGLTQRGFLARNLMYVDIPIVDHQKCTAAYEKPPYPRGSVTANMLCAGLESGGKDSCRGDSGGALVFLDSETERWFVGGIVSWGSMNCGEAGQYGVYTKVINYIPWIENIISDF

[2] = biological target: rat MASP-2 (in rat serum) (rat, UniProt Q9JJS8 20-685); assay: cell-based or functional assay
Chain of rat MASP-2 (in rat serum) (Q9JJS8 20-685 limits assumed): as the sequence (Q9JJS8 20-685) above

[3] = biological target: T3, human MASP-2 (in normal human serum) (human, UniProt O00187 16-686); assay: cell-based or functional assay
T3 sequence (O00187 16-686 limits assumed): as the sequence (O00187 16-686) above

[4] = biological target: T4, rat MASP-2cf CCP1-CCP2-SP (rat, UniProt Q9JJS8 298-685); assay: SPR, target immobilised
T4 construct: range 298-685; Mw 42309 Da; also called rat MASP-2 catalytic fragment
T4 sequence (Q9JJS8 other isoform, or with tags, fused parts or gaps limits assumed, form in doubt): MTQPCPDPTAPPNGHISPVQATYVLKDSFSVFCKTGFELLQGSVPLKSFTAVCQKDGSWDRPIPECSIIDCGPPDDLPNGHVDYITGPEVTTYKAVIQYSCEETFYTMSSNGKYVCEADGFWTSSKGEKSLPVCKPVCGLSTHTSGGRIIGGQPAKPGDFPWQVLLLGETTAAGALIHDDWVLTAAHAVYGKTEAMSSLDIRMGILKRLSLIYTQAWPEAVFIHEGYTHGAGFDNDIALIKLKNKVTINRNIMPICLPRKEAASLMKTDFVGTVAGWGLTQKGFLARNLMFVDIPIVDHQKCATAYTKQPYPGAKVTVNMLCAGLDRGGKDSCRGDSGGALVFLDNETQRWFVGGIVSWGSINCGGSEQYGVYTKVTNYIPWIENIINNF

[5] = biological target: T5, human MASP-2cf CCP1-CCP2-SP (human, UniProt O00187 298-686, limits assumed); assay: SPR, target immobilised
T5 construct: domain: CCP1-CCP2-SP; also called human MASP-2 catalytic fragment
T5 sequence (O00187 298-686 limits assumed): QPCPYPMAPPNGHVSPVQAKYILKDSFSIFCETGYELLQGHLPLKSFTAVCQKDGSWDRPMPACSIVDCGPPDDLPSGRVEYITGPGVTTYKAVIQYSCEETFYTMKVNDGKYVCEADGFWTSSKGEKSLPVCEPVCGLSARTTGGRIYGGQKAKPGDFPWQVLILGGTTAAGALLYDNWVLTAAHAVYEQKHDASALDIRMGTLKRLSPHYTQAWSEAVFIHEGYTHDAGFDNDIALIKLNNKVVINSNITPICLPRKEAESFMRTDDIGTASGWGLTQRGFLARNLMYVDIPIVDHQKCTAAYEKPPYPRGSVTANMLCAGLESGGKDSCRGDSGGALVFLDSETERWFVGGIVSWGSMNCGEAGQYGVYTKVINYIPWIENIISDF

[6] = biological target: T3, human MASP-2 (in normal human serum); assay: cell-based or functional assay; remark: listed apart in the source
fXIa = fXIa (human, UniProt P03951 19-625); assay: cell-based or functional assay
Chain of fXIa (P03951 19-625 limits assumed): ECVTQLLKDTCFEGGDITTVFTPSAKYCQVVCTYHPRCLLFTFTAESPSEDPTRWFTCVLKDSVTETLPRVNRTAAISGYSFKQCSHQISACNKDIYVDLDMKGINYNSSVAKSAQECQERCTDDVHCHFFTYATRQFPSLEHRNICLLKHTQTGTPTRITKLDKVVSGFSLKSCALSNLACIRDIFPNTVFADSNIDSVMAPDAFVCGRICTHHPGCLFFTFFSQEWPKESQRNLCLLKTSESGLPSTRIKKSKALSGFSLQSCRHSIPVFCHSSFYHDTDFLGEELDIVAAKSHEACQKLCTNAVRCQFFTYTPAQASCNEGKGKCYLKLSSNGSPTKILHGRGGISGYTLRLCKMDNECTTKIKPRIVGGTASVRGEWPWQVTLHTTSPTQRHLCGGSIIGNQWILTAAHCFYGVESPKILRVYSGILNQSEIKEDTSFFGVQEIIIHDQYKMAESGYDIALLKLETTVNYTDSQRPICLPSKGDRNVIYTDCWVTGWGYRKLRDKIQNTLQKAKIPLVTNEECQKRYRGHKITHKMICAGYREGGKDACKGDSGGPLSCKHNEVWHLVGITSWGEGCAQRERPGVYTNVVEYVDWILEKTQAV

fIXa = fIXa (human, UniProt P00740 47-461); assay: cell-based or functional assay
Chain of fIXa (P00740 47-461 limits assumed): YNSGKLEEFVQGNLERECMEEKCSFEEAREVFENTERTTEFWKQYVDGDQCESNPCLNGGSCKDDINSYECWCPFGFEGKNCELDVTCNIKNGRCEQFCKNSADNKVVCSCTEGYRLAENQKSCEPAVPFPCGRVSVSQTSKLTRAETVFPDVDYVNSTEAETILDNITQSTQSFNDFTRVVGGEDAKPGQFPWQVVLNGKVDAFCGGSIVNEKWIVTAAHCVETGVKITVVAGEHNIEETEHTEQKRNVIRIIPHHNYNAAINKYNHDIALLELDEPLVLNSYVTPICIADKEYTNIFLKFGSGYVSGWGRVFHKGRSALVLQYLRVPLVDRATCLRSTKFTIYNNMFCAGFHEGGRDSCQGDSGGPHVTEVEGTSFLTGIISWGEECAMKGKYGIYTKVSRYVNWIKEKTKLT

MASP-1 = biological target: T6, MASP-1 (UniProt P48740 298-699, limits assumed); assay: cell-based or functional assay
T6 sequence (looked up): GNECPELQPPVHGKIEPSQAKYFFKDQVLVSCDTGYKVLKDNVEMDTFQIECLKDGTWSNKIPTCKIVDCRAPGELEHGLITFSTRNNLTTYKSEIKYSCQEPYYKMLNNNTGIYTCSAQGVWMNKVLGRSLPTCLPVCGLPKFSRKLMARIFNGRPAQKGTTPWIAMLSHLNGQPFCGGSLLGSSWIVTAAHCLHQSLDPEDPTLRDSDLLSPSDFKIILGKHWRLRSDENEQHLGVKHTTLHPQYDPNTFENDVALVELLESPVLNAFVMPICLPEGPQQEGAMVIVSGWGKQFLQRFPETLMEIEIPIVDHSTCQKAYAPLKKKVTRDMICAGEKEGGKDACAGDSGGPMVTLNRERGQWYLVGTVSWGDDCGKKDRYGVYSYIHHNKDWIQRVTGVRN

fXIIa = biological target: T7, fXIIa (human, UniProt P00748 20-615, limits assumed); assay: cell-based or functional assay
T7 sequence (looked up): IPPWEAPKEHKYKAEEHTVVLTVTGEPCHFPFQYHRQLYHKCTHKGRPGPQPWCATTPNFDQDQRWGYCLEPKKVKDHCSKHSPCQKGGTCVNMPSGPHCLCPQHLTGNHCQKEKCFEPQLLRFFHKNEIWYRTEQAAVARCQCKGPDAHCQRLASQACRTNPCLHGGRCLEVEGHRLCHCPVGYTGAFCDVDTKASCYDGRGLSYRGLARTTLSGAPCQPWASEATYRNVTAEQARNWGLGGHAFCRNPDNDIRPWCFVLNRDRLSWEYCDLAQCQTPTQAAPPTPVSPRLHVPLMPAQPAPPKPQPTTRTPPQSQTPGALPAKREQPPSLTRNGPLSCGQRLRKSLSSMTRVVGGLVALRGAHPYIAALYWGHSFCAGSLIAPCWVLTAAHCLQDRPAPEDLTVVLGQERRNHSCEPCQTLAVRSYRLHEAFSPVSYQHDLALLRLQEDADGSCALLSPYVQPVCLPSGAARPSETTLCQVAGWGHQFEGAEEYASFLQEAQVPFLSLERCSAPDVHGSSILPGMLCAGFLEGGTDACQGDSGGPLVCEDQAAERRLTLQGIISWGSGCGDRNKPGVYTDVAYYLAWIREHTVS

[7] = biological target: T4, rat MASP-2cf CCP1-CCP2-SP; assay: enzyme inhibition, tight-binding fit
[8] = biological target: T5, human MASP-2cf CCP1-CCP2-SP; assay: enzyme inhibition, tight-binding fit

KPDFCFLENDPGPCRALKRRYFYNNQTKQCERFYYGGCFGNMNNFETLEECKNICEDG (disulfide 5-55, 14-38, 30-51) [EVO25]
Ki (human MASP-2cf): 0.17 ± 0.04 nM

KPDFCFLENDPGPCRAAKRRYFYNNQTKQCERFYYGGCLGNMNNFVTLEECKNICEDG (disulfide 5-55, 14-38, 30-51) [EVO22a]
Kd ([1]; Human MASP-2 catalytic fragment, SPR, read-out: KD): 0.045 nM

KPDFCFLENDPGPCRALKRRYFYNNQTKQCERFGYGGCLGNMNNFVTLEECKNICEDG (disulfide 5-55, 14-38, 30-51) [EVO21]
APTT (intrinsic pathway; 0.15625 μM): 32.9 and 32.3
APTT (intrinsic pathway; 0.3125 μM): 33.6 and 32.8
APTT (intrinsic pathway; 0.625 μM): 34.3 and 33.6
APTT (intrinsic pathway; 1.25 μM): 37.0 and 34.8
APTT (intrinsic pathway; 2.5 μM): 40.0 and 37.1
APTT (intrinsic pathway; 5 μM): 45.6 and 40.1
APTT (intrinsic pathway; 10 μM): 58.7 and 67.6
PI (extrinsic pathway; 0.15625 μM): 10.2 and 10.0
PI (extrinsic pathway; 0.3125 μM): 10.1 and 10.0
PI (extrinsic pathway; 0.625 μM): 10.1 and 10.0
PI (extrinsic pathway; 1.25 μM): 10.2 and 10.1
PI (extrinsic pathway; 2.5 μM): 10.3 and 10.2
PI (extrinsic pathway; 5 μM): 10.6 and 10.3
PI (extrinsic pathway; 10 μM): 11.4 and 11.9
TT (thrombin; 0.15625 μM): 17.1 and 17.0
TT (thrombin; 0.3125 μM): 16.9 and 17.0
TT (thrombin; 0.625 μM): 16.8 and 16.9
TT (thrombin; 1.25 μM): 16.9 and 17.1
TT (thrombin; 2.5 μM): 16.4 and 17.4
TT (thrombin; 5 μM): 16.5 and 17.4
TT (thrombin; 10 μM): 16.8 and 16.4

SEQ ID NO: 11 in WO2018127719: highest efficiency human MASP-2 inhibiting Kunitz domain compound of WO2018127719, canonical inhibitory loop sequence GFCRAVKR (KPDFCFLENDPGPCRALKRRYFYNNQTKQCERFYYGGCFGNMNNFETLEECKNICEDG)
Ki (rat MASP-2): 640 nM
Ki (human MASP-2): 2 nM

KPDFCFLEEDPGPCRAVKRRYFYNNQTKQCERFKYGGCLGNMNNFETLEECKNICEDG (disulfide 5-55, 14-38, 30-51) [EVO2]
Ki (rat MASP-2): ~7 nM
Ki (human MASP-2; listed as WO2018127719 with SEQ ID NO: 14): 7.9 nM
Ki (human MASP-2): ~7 nM

KPDFCFLENDPGPCRAAAVRYFYNNQTKQCERFYYGGCLGNMNNFVTLEECKNICEDG (disulfide 5-55, 14-38, 30-51) [EVO223]
Ki (human MASP-2cf; 5 nM enzyme, read-out: KI values human MASP-2cf): 0.17 ± 0.07 nM

KPDFCFLENDPGLCRAAAVRYFYNNQTKQCERFYYGGCLGNMNNFVTLEECKNICEDG (disulfide 5-55, 14-38, 30-51) [EVO222]
Kd [1]: 0.045 nM

B1: EVO21 (designed binder)
chain: KPDFCFLENDPGPCRALKRRYFYNNQTKQCERFGYGGCLGNMNNFVTLEECKNICEDG
modifications: not fully specified; ends and bridges not checked
notes: Modified TFPI-D2 Kunitz domain; made as m1
IC50, lectin pathway C4 deposition, rat serum [2]: 10.9 nM
Relative potency, lectin pathway, rat serum [2]: 9.8 fold vs EVO2
IC50, lectin pathway C4 deposition, human serum [3]: 5.7 nM
Relative potency, lectin pathway, human serum [3]: 24.1 fold vs EVO2
Kd [4]: 0.082 nM
Relative affinity [4]: 44.1 fold vs EVO2
koff [4]: 4.49e-05 s⁻¹
kon [4]: 545000 M⁻¹ s⁻¹
Kd [5]: 0.037 nM
Relative affinity [5]: 48 fold vs EVO2
koff [5]: 4.92e-05 s⁻¹
kon [5]: 1.32e+06 M⁻¹ s⁻¹
Relative potency (relative human lectin pathway inhibitory efficiency compared to EVO2) [6]: 24 fold relative to EVO2
IC50, enzyme activity on synthetic substrate (fXIa): 800 nM
IC50, enzyme activity on synthetic substrate (fIXa): 28000 nM
IC50, enzyme activity on synthetic substrate (MASP-1): 13000 nM
IC50, enzyme activity on synthetic substrate (fXIIa): 10500 nM

B2: EVO214 (designed binder)
chain: KPDFCFLENDPGPCRALKLRYFYNNQTKQCERFGYGGCLGNMNNFVTLEECKNICEDG
modifications: not fully specified; ends and bridges not checked
notes: as for B1
IC50, lectin pathway C4 deposition, rat serum [2]: 11.2 nM
Relative potency, lectin pathway, rat serum [2]: 9.5 fold vs EVO2
IC50, lectin pathway C4 deposition, human serum [3]: 4.3 nM
Relative potency, lectin pathway, human serum [3]: 32.4 fold vs EVO2
Kd [4]: 0.117 nM
Relative affinity [4]: 31 fold vs EVO2
koff [4]: 7.19e-05 s⁻¹
kon [4]: 614000 M⁻¹ s⁻¹
Kd [5]: 0.038 nM
Relative affinity [5]: 47.6 fold vs EVO2
koff [5]: 4.78e-05 s⁻¹
kon [5]: 1.27e+06 M⁻¹ s⁻¹
IC50, enzyme activity on synthetic substrate (fXIa): 200 nM
IC50, enzyme activity on synthetic substrate (fIXa): 24000 nM
IC50, enzyme activity on synthetic substrate (MASP-1): 9600 nM
IC50, enzyme activity on synthetic substrate (fXIIa): 3700 nM

B3: EVO24 (designed binder)
chain: KPDFCFLENDPGPCRALKRRYFYNNQTKQCERFYYGGCLGNMNNFETLEECKNICEDG
modifications: not fully specified; cysteine pairing not given here
notes: as for B1
IC50, lectin pathway C4 deposition, rat serum [2]: 6.6 nM
Relative potency, lectin pathway, rat serum [2]: 16.2 fold vs EVO2
IC50, lectin pathway C4 deposition, human serum [3]: 7.6 nM
Relative potency, lectin pathway, human serum [3]: 18.1 fold vs EVO2
Kd [4]: 0.289 nM
Relative affinity [4]: 12.6 fold vs EVO2
koff [4]: 0.000327 s⁻¹
kon [4]: 1.13e+06 M⁻¹ s⁻¹
Kd [5]: 0.276 nM
Relative affinity [5]: 6.5 fold vs EVO2
koff [5]: 0.000622 s⁻¹
kon [5]: 2.25e+06 M⁻¹ s⁻¹
Ki [7]: 0.36 nM
Ki [8]: 0.34 nM
IC50, enzyme activity on synthetic substrate (fXIa): 500 nM
IC50, enzyme activity on synthetic substrate (fIXa): 123000 nM
IC50, enzyme activity on synthetic substrate (MASP-1): 9500 nM
IC50, enzyme activity on synthetic substrate (fXIIa): 16100 nM

B4: EVO23 (designed binder)
chain: KPDFCFLENDPGPCRALKRRYFYNNQTKQCERFYYGGCFGNMNNFVTLEECKNICEDG
modifications: not fully specified; cysteine pairing not given here
notes: as for B1
IC50, lectin pathway C4 deposition, rat serum [2]: 8.1 nM
Relative potency, lectin pathway, rat serum [2]: 13.1 fold vs EVO2
IC50, lectin pathway C4 deposition, human serum [3]: 2.9 nM
Relative potency, lectin pathway, human serum [3]: 47.1 fold vs EVO2
Kd [4]: 0.674 nM
Relative affinity [4]: 5.4 fold vs EVO2
koff [4]: 0.000662 s⁻¹
kon [4]: 982000 M⁻¹ s⁻¹
Kd [5]: 0.094 nM
Relative affinity [5]: 19.1 fold vs EVO2
koff [5]: 0.000197 s⁻¹
kon [5]: 2.1e+06 M⁻¹ s⁻¹
IC50, enzyme activity on synthetic substrate (fXIa): 500 nM
IC50, enzyme activity on synthetic substrate (fIXa): 2600 nM
IC50, enzyme activity on synthetic substrate (MASP-1): 6500 nM
IC50, enzyme activity on synthetic substrate (fXIIa): 3300 nM
